According to US20080268507:

Key:
Experiment in all cases: cleavage_in_vitro
[1] = tested on: NPN297 (Nt.CviPII C-terminal truncation) (Chlorella virus NYs-1); details: 37 C 1 h; same specificity as wild type
[2] = tested on: NPN329 (Nt.CviPII C-terminal truncation) (Chlorella virus NYs-1); details: 37 C 1 h; same specificity as wild type
[3] = tested on: T1, Nt.CviPII (His+) (Chlorella virus NYs-1); details: NEBuffer 4 (10 mM Mg acetate), 37 C 1 h
T1 sequence: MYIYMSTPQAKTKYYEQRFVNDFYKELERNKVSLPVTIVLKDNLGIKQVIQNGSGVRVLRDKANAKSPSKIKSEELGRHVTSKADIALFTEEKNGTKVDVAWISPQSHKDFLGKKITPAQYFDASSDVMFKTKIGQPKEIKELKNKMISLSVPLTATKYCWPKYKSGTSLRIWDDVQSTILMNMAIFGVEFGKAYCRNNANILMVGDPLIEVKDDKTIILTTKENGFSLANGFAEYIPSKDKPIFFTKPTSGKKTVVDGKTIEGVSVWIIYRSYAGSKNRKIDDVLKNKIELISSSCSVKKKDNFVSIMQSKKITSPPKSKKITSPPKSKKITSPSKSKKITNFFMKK

Substance: pUC19 plasmid
- activity [1]: 2600 units/mg
- activity [2]: 1400 units/mg
- activity [3]: 9410 units/mg
